± gives the half width of the 95% confidence interval.
Experiments:
[1] = folding stability dG unfold from chymotrypsin proteolysis; higher = more stable
Summary of the method: (§1)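 Unfolding free energy was derived, per protease or combined, against a sequence-predicted unfolded-state K50 and a shared folded-state K50, starting from K50 inferred by Bayesian fitting of sequencing counts. Digestion with trypsin and chymotrypsin was carried out on designed mini-proteins under 80 residues without cysteine in a PA-tagged cDNA display construct. Only designs with AlphaFold2 dimer inter-PAE above 15 were kept.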

[2] = folding stability dG unfold from trypsin proteolysis; higher = more stable
Summary of the method: as §1

[3] = folding stability dG unfold (combined trypsin and chymotrypsin); higher = more stable
Summary of the method: as §1

Sequence	folding stability dG unfold [1]	folding stability dG unfold [2]	folding stability dG unfold [3]
SAGGSAMIVIPVDPNDPAAEKTVAEAIAAGKDVIIRSPSGKYTFYKPDGSKKELSSEEEIKKAGLESAGGSA [r15_94_JUSTAS]	-0.495 ± 0.77 kcal/mol	0.249 ± 0.086 kcal/mol	0.0288 ± 0.19 kcal/mol
SAGGSAMKAKEIKRLKLKDRPLVVIFLENPEGGYSVLVIPLENPEKVEELLEELVKEGLLDEITPESAGGSA [r15_575_TrMRF]	1.93 ± 0.082 kcal/mol	1.03 ± 0.031 kcal/mol	1.59 ± 0.074 kcal/mol
SAGGSAMKIEEIEKVELKKNENGELTAKIIIKDKKTNKYIEIEITVKPGMTLEEIKKLAEELLKKLSAGGSA [r15_181_TrROS_Hall]	1.96 ± 0.075 kcal/mol	3.42 ± 0.13 kcal/mol	2.73 ± 0.14 kcal/mol
SAGGSAMKITLKTKDGKEIEIEVEEKTNENGEKYLVLKIKDKKTNKEYTIVMSKEELEELLKKLLSSAGGSA [r15_92_TrROS_Hall]	5.48 ± 0.11 kcal/mol	4.33 ± 0.21 kcal/mol	5.55 ± 0.17 kcal/mol
SAGGSAMKLTFTDSKGRTIEITVEKKYLPNGEPYLIITIKYPDTDEEIVITMPTSNIDEILEKLLNSAGGSA [r15_92_JUSTAS]	4.28 ± 0.11 kcal/mol	4.06 ± 0.32 kcal/mol	4.27 ± 0.24 kcal/mol
SAGGSAMLDNLVPVGSVTVVERFPDGLLRVVNYTFWRDPESGAWYVSADVEVFPLLPEDPVLLEAGSAGGSA [r15_207_TrMRF]	3.88 ± 0.048 kcal/mol	2.24 ± 0.11 kcal/mol	3.6 ± 0.11 kcal/mol
SAGGSAMLENLPELDIKIKVEYKAEILPDGSLLIPAKIELEIGDKKFEFEAKILINPNGEITIEIGSAGGSA [r15_891_TrMRF]	2.45 ± 0.31 kcal/mol	2.97 ± 0.26 kcal/mol	2.96 ± 0.31 kcal/mol
SAGGSAMLPDEVTVKPVEMPVPPDLTLEELEQEVRERAGPGTSVEVSYDPATGVATVTVTDARPALSAGGSA [r15_749_JUSTAS]	1.44 ± 0.029 kcal/mol	-0.162 ± 0.035 kcal/mol	1.03 ± 0.04 kcal/mol
SAGGSAMLRVFEKEHPGPFSITVLAGPGLSEEEIEELAEKLAEKKIEIEKKKIELEKKGKKPIFKKSAGGSA [r15_704_JUSTAS]	0.235 ± 0.43 kcal/mol	0.327 ± 0.21 kcal/mol	0.0936 ± 0.43 kcal/mol
SAGGSAMMTVTITIPKENLTKEEIKKALEEAGAKVVKVEEKDGKVTVTVEMTPEQVEKLKEALKKLSAGGSA [r15_161_TrROS_Hall]	3.53 ± 0.28 kcal/mol	3.98 ± 0.46 kcal/mol	4.14 ± 0.45 kcal/mol
SAGGSAMNPKLEALPEVEITEEKTEEYKTAENKKLLVKEYKSNAEPGKTYKVIYDPETGKVLSVEESAGGSA [r15_66_JUSTAS]	1.1 ± 0.11 kcal/mol	0.0954 ± 0.059 kcal/mol	0.737 ± 0.1 kcal/mol
SAGGSAMPDDPLVLRANIPFVVVGPDGRPRLFRREILVPFASEEEAERFRRELEALGAEVEPVARASAGGSA [r15_117_TrMRF]	2.17 ± 0.13 kcal/mol	1.62 ± 0.051 kcal/mol	1.93 ± 0.12 kcal/mol
SAGGSAMPDLAAAPGVTRVEPYPDGLVEIHLDGSEEARDEIEERLRAAGDFEIYRLPDRDTLLVRASAGGSA [r15_554_TrMRF]	-0.165 ± 0.55 kcal/mol	-0.00819 ± 0.26 kcal/mol	-0.025 ± 0.29 kcal/mol
SAGGSAMPDMTAEELAAEVAKKLPPGEKVLIKIRNKNGETKTFELGEDISDLPADEVTEIEIEVLPSAGGSA [r15_50_TrROS_Hall]	1.05 ± 0.036 kcal/mol	0.248 ± 0.073 kcal/mol	0.781 ± 0.054 kcal/mol
SAGGSAMPLEELKKVTITLSFYNENGELVAEMTLEYDEETDVFTMTVKVRYNGKTYTVEMEFKLLPSAGGSA [r15_278_TrROS_Hall]	5.29 ± 0.2 kcal/mol	4.5 ± 0.56 kcal/mol	5.23 ± 0.32 kcal/mol
SAGGSAMPLLKPPKTIRLRILFKVPEPGKELDITEEAVRELFNPFGAKVRIYRDGDYVLIEVEFVVSAGGSA [r15_377_TrMRF]	3.37 ± 0.089 kcal/mol	4.03 ± 0.097 kcal/mol	3.85 ± 0.15 kcal/mol
SAGGSAMPVEFPSEGVVEAVNPKTGKVYLIRYETGDTKTRFVIFEPGTGEVRVIDEDTTFEEAVEDSAGGSA [r15_234_TrMRF]	0.382 ± 0.16 kcal/mol	0.802 ± 0.036 kcal/mol	0.674 ± 0.088 kcal/mol
SAGGSAMREIRVGDTVVRILSIDPSTGEVHIAVREDLPPETIEAARRALEEAGLRFRVEPVPEELLSAGGSA [r15_570_TrMRF]	2.33 ± 0.028 kcal/mol	1.73 ± 0.065 kcal/mol	2.15 ± 0.053 kcal/mol

Sequence	folding stability dG unfold [1]	folding stability dG unfold [2]	folding stability dG unfold [3]
SAGGSAMRIKVTLENGEEIEIEIEESMTEEEVKELAEELAKKLAEELGIKEVKVEVEEVELPEEEESAGGSA [r15_33_TrROS_Hall]	2.96 ± 0.054 kcal/mol	1.68 ± 0.11 kcal/mol	2.53 ± 0.11 kcal/mol
SAGGSAMRPLELENPNGREITIWYNPGEGHFQVEIERYEPPPNGKKKPQRHTFMVNSPEDLLDFIKSAGGSA [r15_31_TrROS]	1.6 ± 0.15 kcal/mol	1.57 ± 0.046 kcal/mol	1.65 ± 0.19 kcal/mol
SAGGSAMTITIKIENEDVTIPSSKSKEEILKAIKENPDVPVTVTLPDGTPVTLSPEELEKLIKEEKSAGGSA [r15_36_JUSTAS]	1.23 ± 0.022 kcal/mol	1.02 ± 0.032 kcal/mol	1.11 ± 0.11 kcal/mol
SAGGSAMTIYIKNKDGYIIKIEITKIEEIGPNYIKIKMKMEIINKNGEKKEIELELIFKVKNPEELSAGGSA [r15_1035_TrROS_Hall]	4 ± 0.099 kcal/mol	2.54 ± 0.33 kcal/mol	3.79 ± 0.28 kcal/mol
SAGGSAMTKVTVTFDPVTGTYTIKTTDSKGPSEYPLPKSFLEKTPLSEVAKKLNLNISEFTIEPNPSAGGSA [r15_801_JUSTAS]	1.25 ± 0.099 kcal/mol	0.771 ± 0.044 kcal/mol	1.14 ± 0.092 kcal/mol
SAGGSAMTLEDLKDEFVVITLPDGTVVKAKVEEVDTKGPVLTILVGGKPILIPADAPVKIEIEPPKSAGGSA [r15_355_JUSTAS]	1.36 ± 0.033 kcal/mol	1.74 ± 0.063 kcal/mol	1.53 ± 0.043 kcal/mol
SAGGSAMTPEEIRNMSLEEILKLIKEKLEKGEKVEIEITLPDGRKLRITFERLPNGEIKITIEEVDSAGGSA [r15_857_TrROS_Hall]	5.04 ± 0.32 kcal/mol	3.53 ± 0.2 kcal/mol	4.72 ± 0.28 kcal/mol
SAGGSAMTPVTLEITSEEELEAKIEELAPPGRTVTINVTSTTEKTRVEDDVTRDYTVVTANVTFPPSAGGSA [r15_95_JUSTAS]	0.573 ± 0.04 kcal/mol	0.181 ± 0.1 kcal/mol	0.399 ± 0.12 kcal/mol
SAGGSAMTVTLIVGDKPITIPLTASLSDIKAALEEHPDVPVYIILPNGKRIEMKVSDLIKMMEKAGSAGGSA [r15_36_TrMRF]	3.35 ± 0.099 kcal/mol	2.99 ± 0.058 kcal/mol	3.16 ± 0.1 kcal/mol
SAGGSAMVKTADGKEVKVEKVIPLEEMSLEELKALAEKNNKPILIVDKKTKKVIVLTKEELEKLLKSAGGSA [r15_904_TrROS_Hall]	1.73 ± 0.071 kcal/mol	0.858 ± 0.066 kcal/mol	1.33 ± 0.22 kcal/mol
SAGGSAMVLVRIKLKHPEREEVIEVPAGELLEILEHPELNEHWEIVEIEAREVPPEFVEPEELEEESAGGSA [r15_460_TrMRF]	0.896 ± 0.18 kcal/mol	0.85 ± 0.087 kcal/mol	0.888 ± 0.13 kcal/mol
SAGGSAMVRIEVELENGEKLEIEIEVPEEMTEEELLEKAKELAKELAEKLGIPEAKVKVVKIEVVPSAGGSA [r15_463_TrROS_Hall]	2.92 ± 0.22 kcal/mol	4.06 ± 0.16 kcal/mol	3.92 ± 0.23 kcal/mol
SAGGSAMVVIRTTKPGGKVEVLAVNPEDGSKTVKTFSSSTSPKEVFEEVNKEFGGEVKVEKVELKASAGGSA [r15_544_TrMRF]	-0.912 ± 0.58 kcal/mol	-0.439 ± 0.18 kcal/mol	-0.512 ± 0.18 kcal/mol
SAGGSAMVYLVTVTIKSEGKEVRYKEWVESDEPEKLIEKVKKEYPNEEIKVEITPFPSKEEAEKLLSAGGSA [r15_889_JUSTAS]	2.48 ± 0.042 kcal/mol	2.36 ± 0.098 kcal/mol	2.41 ± 0.096 kcal/mol
SAGGSAMYKVEVTATTSSSSTPYPLEMDFETEEEAKERVKKYLEEKYGDPISSIETKIEPVEPGLESAGGSA [r15_670_JUSTAS]	-0.645 ± 0.57 kcal/mol	-0.314 ± 0.21 kcal/mol	-0.234 ± 0.36 kcal/mol
SAGGSAMYYRFEIPRPDGVIEEIWIKMTPEEAKALVEALEADPNVASVKVEAITEEEARKLGIFENSAGGSA [r15_39_JUSTAS]	4.46 ± 0.12 kcal/mol	4.17 ± 0.28 kcal/mol	4.34 ± 0.18 kcal/mol
SAGGSANGYFILIKIEEIKLTKMRRDPDGKQWQWNFSVKIKIEVVKVFRIKPDPNGNWKIEPGDPISAGGSA [r15_162_TrROS]	3.33 ± 0.053 kcal/mol	3.01 ± 0.11 kcal/mol	3.25 ± 0.12 kcal/mol

From the supplement of paper PMC12764529
